From a protein production outcome set (Wang et al. 2014)

Assay: label from the status in PepcDB records

## MSDNNDRMYELEYPSPEVSGQTAGGPTLIVALQGYADAGHAVESSSSHLMDALDHRLIASFNNDELIDYRSRRPVVVIEHNEVTSMDELNLGLHVVRDNDNKPFLMLSGPEPDLRWGDFSNAVVDLVEKFGVENTICLYAAPMTVPHTRPTVVTAHGNSTDRLKDQVSLDTRMTVPGSASLMLEKLLKDKGKNVSGYTVHVPHYVSASPYPAATLKLLQSIADSADLNLPLLALERDAEKVHRQLMEQTEESSEIQRVVGALEQQYDSE
  protein production: not failed

## MSLDRIRLASLHDKVISADAAAAFIQDGMTVGMSGFTRAGEAKAVPQALVERAKQNPLKITLITGASLGNDLDKQLTEAGVLARRLPFQVDNTLRRAINNGEVMFIDQHLSETVEQMRNLQLKRPDVAVIEAIAITEDGGIIPTTSVGNSASFAIFAEKVIVEINTSLSEAFEGLHDIYIPSYRPTRQPIPLTKVDERIGTTAIQIDPAKIVGIVFNDTADSPSTVTLPDDETQGIANHLIAFFEKEVAEGRLPQNLGPLQAGIGSIANAVLTGLKDSNFEDLVMYSEVLQDCTFELIDAGKMKFASGSSITLSAKCGEKVFGNIEAYKDKLVLRPQEISNHPELVRRLGIIGINTALEFDIYGNVNSTHVCGTKMMNGIGGSGDFARNAHLAIFVTKSIAKGGDISSIVPMVSHVDHSEHDVDILVTEQGLADLRGLAPRERARAVIDHCVHPLYKDALNDYFSRASAKGGHTPHLLREALSWHVNFEENGHMLAIEPEAKSA
  protein production: failed

## MKLSSLLNSENSEKNHLQIQQSGQRRIDRMAQSGVGKSSLWSLAEVGWTAGPVTFLAAQGGYYLGFGTWLPNENLIFFVGYTVLMGLIAVLVKFIYKATKGQELDDAKEQLLLVIGSLPDFILSVRDLTLSRMEPESRRYESARILLQKSDLGPQWLTLAVNSIIDSPVIAQAVANIEIYWRAGMYSRIHDINQELSTEISAALASLEPDRPRLARLLEQRLQGKKNTLRSGVEREPFFIERIFSAIEEDNEDIMGLSDVEEVLTLAFELLSGRRIPMLVVNCVGSSQLTIATKKLEKERSKYRIARARGYSQLLALANFLSDSNLLDYSTVAERLPSSDLLQICLETIDRLCQNICDDIGCVQKRENVDMRALKLNHSVLIKALELYQQAYRSSAMVLNEHADFLKDINSWQRINLKYADANTKVSVTGKQGLHIIERQIQLTDADKITVVKKIAHHFDSQSILSKGLRNRTQQSNWQVSNQHVRAAKQLAIDLALALNPCVFISLPEVQGAIYSSNAVDLGSFEPGLSTTTKVGWGESVAKEVKKDMVKASEQIAQAIHRYYGICLGDKELDFMHQTYGMNKEHVIDYYLENEQGEQSSNVFEPRSPLMIPEVKFAWRKTLTLYRQHI
  protein production: failed

## MKPTLFVLAAGMGSRYGSLKQLDGIGPGGDTIMDYSVYDAIRAGFGRLVFVIRHSFEKEFREKILTKYEGRIPVELVFQELDRLPEGFSCPEGREKPWGTNHAVLMGRDAIREPFAVINADDFYGRNGFEVLARKLMTLEGKQGEYCMVGYRVGNTLSESGGVSRGVCQVDEKHLLTGVVERTGIERTDGTISFRDETGKICTLAEDAPVSMNMWGFTPDYFDYSEELFINFLNAHGQEPKSEFFIPFVVNDLIRSGRASVEVLDTTARWFGVTYSDDRPGVVAKLRELTEAGEYPTKLFLEHHHHHH
  protein production: not failed

## MDNLMLNNKIYLEGTVVSELEFSHEMYGEGFYTFNLEVMRLSDSKDLLNITVSERLITTMDLKIGTEIVVEGQLRSYNKFIDGNNKLILTVFARNIEYCEERSKNPNEIFLDGFICKEPVYRTTPFGREIADLLLAVNRSYNKSDYIPTIAWGRNSRFCKTLEVGDNIRIWGRLQSREYQKKISETEVVKKIAYEVSISKMEKVSVESEQNESGEEISLEHHHHHH
  protein production: failed

## KEETEIIEGEVVEIQIDRPATGTGSKVGKLTLKTTEMETIYDLGTKMIESLTKDKVQAGDVITIDKATGKISKLGRSFTRAR
  protein production: not failed

## MKILVDENMPYARELFSRLGEVKAVPGRPIPVEELNHADALMVRSVTKVNESLLSGTPINFVGTATAGTDHVDEAWLKQAGIGFSAAPGCNAIAVVEYVFSALLMLAERDGFSLRDRTIGIVGVGNVGSRLQTRLEALGIRTLLCDPPRAARGDEGDFRTLDELVQEADVLTFHTPLYKDGPYKTLHLADETLIRRLKPGAILINACRGPVVDNAALLARLNAGQPLSVVLDVWEGEPDLNVALLEAVDIGTSHIAGYTLEGKARGTTQVFEAYSAFIGREQRVALETLLPAPEFGRITLHGPLDQPTLKRLAHLVYDVRRDDAPLRKVAGIPGEFDKLRKNYLERREWSSLYVMCDDETAAALLCKLGFNAVHHPAH
  protein production: not failed

## MIQEIASILVQPGREADFEAGVAQARPLFMRARGCHGVALHRSIEAPQRYTLVVDWETVDNHMVDFRQSADFQEWRKLVGECFAEPPQVHHEQKVL
  protein production: not failed

## MILGIDVGGTSVKFGLVTPEGEIQNATRFMTADWVNGIGFVESMKLEIGNFLKQYPIVKGVGIGWPGLVSLDRTKVILLPNIPSVVNVPIVEILRSEFPHIHFKIENDAKCAALGEYYFGENKRMQTFILLALGTGVGSGVMMNGKLFIGGRGNGTEVGHMLTTRGKSLENQVGINHLIAYTHEQLALDVAKKSSLHTIAELSPKVIADHAAQGDALALAVWADIGTIIGESLVNIVRVMDLNNILLGGGISGAFDYFVPNLKKAMLEHLPTYYTDDMYIGKATLENDAGLLGAAGLIMEAI
  protein production: not failed

## GERPEPVFDAFADRLAEVAAVPYAMVNFIDENRQFFAGLHAPDGTGSGGRPAADGAEPPDVRRYMARDYGFCPHVVVRRKALVLEDVCDYPRFAGNPVVDEIGIRSYLGAPLIDRTGIALGTICVVDIEPRPWGRAGLETIKALAAELVEQIGRRESGGI
  protein production: failed

## MSLGHGDEGITPLSSEIVNFSTTVWTDGDKDHLEKHLVENLNCIRHYPEPDAGTLRQMLAKRNSVDNNAILVTNGPTAAFYQIAQAFRGSRSLIAIPSFAEYEDACRMYEHEVCFYPSNEDIGEADFSNMDFCWLCNPNNPDGRLLQRTEILRLLNDHPDTTFVLDQSYVSFTTEEVIRPADIKGRKNLVMVYSFSHAYGIPGLRIGYIVANKDFMKRVAAFSTPWAVNALAIEAAKFILIHPAQFTLPIRKWQRNTVDFITALNRLDGVEVHPSGTTFFLLRLKKGTAAELKKYMLEEYNMLIRDASNFRGLDESYVRITTQRPAQNQLFIKALETFLEKYEGHHHHHH
  protein production: not failed

## MSSATGRWRESPPTAVKNEEDNGRCPRELRVQSEAVLAGRYRLEERLGRGGMGEVWRAFDPHLEREVAVKLILSGDNDGVLIRRFQREARISANIQHPNITAVHDFGHHEGQLFLVMELLRGRDLGAVLADHPQGMPLDLVVSVAVQAADALRAAHTHRVVHRDLKPGNLFLLDTGHVKVCDFGIAHIADATSQLTAVGTALGTPAFMPPEQWKGEEVDSRSDVYALGGVMHTMLTGRIPFTGPLPALLAQHLTQDPPPIREFRPDVPLELADLVARMMAKDPAARPDSHELGELIYRAAAPEASGSPAFFSPQIAPQALPTAPPTAAPVPPQPSHATGYAAPSQWMPAAPQPHPTAHPPAEGDPQTMFTLGLRHREQGDIAGAESWYRKAAEAGHLDSMFNLALLSRERGNLVEAESWYRRAAEVGDVDAMVNLGDLLKERGESAEAELWHRRAAEAGHIASMHTLGNLLYSKGDTAEAETWWRRAAEAGNIRAMGVLGNLLEQRGDTFGAEQWYRRAAEAGNLDAMVNLGVLLENRHDTFGAEQWYRRAADAGDIDAMVNLGNLLHGRGDMGSAQYWWQRAAQTGNTRALNHLNQMG
  protein production: failed

## MKTEKEKREEEEEDLRPFRIHAYSKEELAMLYNPTYCISNAIYTLAAWIRHNKALKGELEKVGYNKYRRTFTPLEVKVLVKYLGEP
  protein production: failed

## MLRGDILDSKRTSIMTRFSSLLLALSVLLLPLRPAQGQPAERTSSLTVEQIMQAPETWIGDWPTNARWHESGQALYFNWNPGGDFPSDSLYKVSRSGGAPQKVSPAERRSNPPTFDGWHHGEHVYTDDFSRKVYAADGDLYLYNRETDTQTRLTDTPAREGNPRFGLEEDRVLFERDDNLFSVHLSTGQIRQLTNVQSGREPQEGAPSPRERFLEEQQLELFETLRERNEEEEQADEARERDREADDPPPPFYTGDAEVSALRMDPTERFVTIAQQSQPDAADPTQVIDYVTESGQADVRRARPKVGIPPGDFALHVQDLKRDTTIAVNLHQLPGAYDVPAYRQEQGAELDSSEAKRALYSYGPYWSADGDHGVLVVRADNNKDRWIARLDPETGDLTVLDRQHDTAWIGGPGISAYGGPGNVGWMPDGEHFYFQSEATGYSHLYTVDVETGETTQLTSGDFEVLDARLSQDGSTWTLTTNRHSPHQQHVERMPADGGDITRLTQMTGTHDAVLSPDGTRLATLYSTTNQPADLYLKDATADADPVRITESPTDEWAAYDWRMPELTRFEASDGVEVPAHVFRPDNPNGAAVFFVHGAGYLQNVLKDFPPYFREYMFHNMLTDLGYTVVDVDYRGSAGYGRDWRTAVYRHMGGRDLQDYVDAAKWVGDTYGIPAERRFIYGGSYGGFMTLMALFTEPEHFGGGAALRSVTDWAHYNDVYTSNILNTPQTDSLAYARSSPIYHAEGLEDPLLMPHGLVDTNVQPQDIFRLTQRLIELGKENWELAIYPVEGHGFEEPSSWTDEYRRIFELIQESVGPERPQN
  protein production: failed

## MKEYLTRSNISYFSIGSGTPIIFLHGLSLDKQSTCLFFEPLSNVGQYQRIYLDLPGMGNSDPISPSTSDNVLETLIEAIEEIIGARRFILYGHSYGGYLAQAIAFHLKDQTLGVFLTCPVITADHSKRLTGKHINILEEDINPVENKEYFADFLSMNVIINNQAWHDYQNLIIPGLQKEDKTFIDQLQNNYSFTFEEKLKNINYQFPFKIMVGRNDQVVGYQEQLKLINHNENGEIVLLNRTGHNLMIDQREAVGFHFDLFLDELNSNN
  protein production: not failed

## MSQSPILFFQHGMGESNQNMQILAGRVASENAYVVVPNLNLLTTFLNLDPLIEVVERSASETLNDFPQSTFSVVGFSMGGILWVEVLSRNPSWLERLDALVLIGSPIQGASLARTVDLFGWGIGIAQELGRNRQYLAEKITQKIPTLVIAGSVNGGGDGVIPIESTRLNGTHFFTRNNVKHQDLPIDLIIGEKVKSFLLHPYLIPS
  protein production: failed

## MSLETVRLQRELIEAQRQTYNEMRTYFTVNGVEGVIGAVFDEGVITLRVPSEVLFAPGAVELAPGADRVLATLKDLFIRRREQNINIKGFTDDVQPSANARFKDNWEVSALRSVNVLRYFLGAGIEPARLTATGLGELDPLFPNTSDENRARNRRVEFVLERRVVREGHHHHHH
  protein production: not failed

## MSIITRLFNNSDFEKLNQLCKLYDDLGYPTNENDLKKRLKKITNHDDYFLLLLIKENKIIGLSGMCKMMFYEKNAEYMRILAFVIHSEFRKKGYGKRLLADSEEFSKRLNCKAITLNSGNRNERLSAHKLYSDNGYVSNTSGFTKQL
  protein production: not failed

## ERLETAQDLLELEGITPELAAKLAERQVHTRDDLAELSTDELAEIAGLQEEEASDLIMRARAHWFDEE
  protein production: failed

## MDFLLRTITMNERRALGFGVAAVLLWSTVATAFKITLEHFTPTQMLTIASAVSILALAGVAAYQKTLSQLIDTFLANPLYYILLGAINPLAYYLVLFKSYDLLPASQAQPLNYSWAITLTLMAAVFLGQKIRKQDWIACVLGYLGVIVIATKGDVLALEFDSPLGVGLALFSTLLWAGYWILNTKNKADPILGLLLGFLVALPVAIGLSIYEGAPWAQIPMSGWAAVSYVGLFEMGVTFVLWLSALRLTQNTARISNLIFASPFISLLLLANIIGEEIHPSTLIGLIMIVCGLLIQQFFGKKEELQTEQ
  protein production: failed

## KLAYRHLIQPESAVRKLMILVNGRAENMLKWSELAYDFYHQGYDVLLFDHRGQGYSQRIIPQKGHLDEFRFYVDDMAKIIEKVTALFSYSTQHLLAHSMGALIATYYLANYDHHINKAVLSSPFYGILLKHPIRDELIITLMNILGQGERYVFGKGAYQQAHLEYNELTFCKTRMKWMNRINRKNPAINLGGPTFRWVHLCLNAIKRLPKVIPKIEIPILILQAEKEKIVDNKNLEKLTALFPNARCEVILNAKHEVLFEKDNVRRNVLKSVNHFLN
  protein production: failed
